The term inhibition denotes the share of the control response that was lost under treatment.

One assay addresses T1, LdASS (V5His-LdASS^WT) (Leishmania donovani, UniProt H9BG20).
T1 construct: full length (419 residues predicted, 46 kDa), N-terminal V5 and His6 tags kept; overexpressed in L. donovani amastigotes, Ni-NTA pull-down, assayed on beads; tetramer inferred from other ASS; CBZ34226.1 (BPK282A1) stated identical
Put plainly: malachite green Pi release, pyrophosphatase-coupled. The settings on record: read-out: % inhibition at 1 mM. Format: biochemical.

Assay [1] has as its target T2, LdPEX5, PTS1 receptor protein peroxin 5 of Leishmania donovani, recombinant (Leishmania donovani, UniProt A0A3S7X906 1-625).
T2 construct: Peroxin 5 (LdPEX5), the PTS1 receptor of Leishmania donovani; construct not described here; also called receptor peroxin 5; glycosomal PTS1 targeting receptor protein
T2 sequence (looked up): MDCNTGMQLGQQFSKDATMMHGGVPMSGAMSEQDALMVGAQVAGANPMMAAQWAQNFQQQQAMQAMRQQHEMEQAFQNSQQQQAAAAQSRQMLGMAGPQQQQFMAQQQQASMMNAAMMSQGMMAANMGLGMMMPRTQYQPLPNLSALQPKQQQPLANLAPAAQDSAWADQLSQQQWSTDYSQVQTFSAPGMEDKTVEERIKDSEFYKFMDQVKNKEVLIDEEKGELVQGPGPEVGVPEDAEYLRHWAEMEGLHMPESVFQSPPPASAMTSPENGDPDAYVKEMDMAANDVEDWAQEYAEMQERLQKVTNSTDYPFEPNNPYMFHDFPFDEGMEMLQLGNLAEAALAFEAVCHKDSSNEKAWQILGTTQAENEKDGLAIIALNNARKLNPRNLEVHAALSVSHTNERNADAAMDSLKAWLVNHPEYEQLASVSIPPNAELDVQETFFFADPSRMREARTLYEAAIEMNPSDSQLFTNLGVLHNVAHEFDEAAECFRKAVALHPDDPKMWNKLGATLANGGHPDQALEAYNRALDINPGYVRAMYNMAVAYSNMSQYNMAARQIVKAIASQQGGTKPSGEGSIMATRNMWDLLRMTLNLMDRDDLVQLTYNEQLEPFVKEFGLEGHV
The assay is described as follows: ELISA; plates coated with 100 µL of 10 µg/mL LdIMPDH or LdASS variant in PBS, 4°C, 16 h; blocked with 2% BSA; purified LdPEX5 at 0.01-400 nM; bound LdPEX5 detected with anti-LdPEX5 polyclonal antisera; apparent Kd. The following applies: both partners purified. Background: ELISA stands for enzyme-linked immunosorbent assay.

The target of assay [2] is V5His-LdASS^G128S, recombinant Leishmania donovani argininosuccinate synthase G128S with N-terminal V5 epitope and hexahistidine tags (Leishmania donovani). The assay is described as above.

Turning to `CC(N)(CC(=O)O)C(=O)O` (racemic) [MDLA, methyl-D-L-Aspartic acid], the inhibition at 1000 µM at LdASS (V5His-LdASS^WT) was ~60%.

B1: V5His-LdASS^WT, recombinant Leishmania donovani argininosuccinate synthase with N-terminal V5 epitope and hexahistidine tags (enzyme, UniProt H9BG20 1-418, looked up)
chain: MPATATEVVCGKKPRVVLAYSGGLDTSVIIPWLKENYDYEVIACCANVGQGAGEIDGLEEKAKKSGASKLYLLDLREEYVTDYIFPTLKAGATYEGKYMLGTSHARPLIAKHLVEVAHKEGAVAICHGATGKGNDQVRFELAVMALDPSLKCVAPWREWNIKSREDAIDYAEAHGVPVPCTKSDLYSRDRNLWHISHEGMDLEDPANEPAYARLLRLCNTVEKAPDEAEYVAVQFEKGIPVAVNGRKMSSVELVEELNALGGKHAIGIEDIVEDRLVGMKSRGVYETPAGTILYKALDMLESLCLDRDTQSFKRQSAVRFSELVYDGKWFTPLRESMSAMFDQMAETVTGEATLKLYKGNLVPAGAQSPYSLYNKNIASFGDSKHLYNHHDAEGFIRLFGLPLRVRSMMKAKEMPSSL
notes: Argininosuccinate synthase (LdASS) of Leishmania donovani strain Ld1S2D; predicted protein identical to L. infantum LinJ.23.0300 and L. donovani BPK282A1 CBZ34226.1; C-terminal Ser-Ser-Leu (PTS1) left free; Made from the pCRT7 plasmid with primers F3/R3 and ligated into pEXP-5-NT/TOPO; also called rLdASS WT, N-terminal tagged; pEXP5-V5HisLdASS^WT; source: E. coli BL21 (DE3) pLysS, purified …
As to B1, in assay [1], the Kd is ~5 nM.

B2: LdPEX5, PTS1 receptor protein peroxin 5 of Leishmania donovani, recombinant (receptor)
chain: MDCNTGMQLGQQFSKDATMMHGGVPMSGAMSEQDALMVGAQVAGANPMMAAQWAQNFQQQQAMQAMRQQHEMEQAFQNSQQQQAAAAQSRQMLGMAGPQQQQFMAQQQQASMMNAAMMSQGMMAANMGLGMMMPRTQYQPLPNLSALQPKQQQPLANLAPAAQDSAWADQLSQQQWSTDYSQVQTFSAPGMEDKTVEERIKDSEFYKFMDQVKNKEVLIDEEKGELVQGPGPEVGVPEDAEYLRHWAEMEGLHMPESVFQSPPPASAMTSPENGDPDAYVKEMDMAANDVEDWAQEYAEMQERLQKVTNSTDYPFEPNNPYMFHDFPFDEGMEMLQLGNLAEAALAFEAVCHKDSSNEKAWQILGTTQAENEKDGLAIIALNNARKLNPRNLEVHAALSVSHTNERNADAAMDSLKAWLVNHPEYEQLASVSIPPNAELDVQETFFFADPSRMREARTLYEAAIEMNPSDSQLFTNLGVLHNVAHEFDEAAECFRKAVALHPDDPKMWNKLGATLANGGHPDQALEAYNRALDINPGYVRAMYNMAVAYSNMSQYNMAARQIVKAIASQQGGTKPSGEGSIMATRNMWDLLRMTLNLMDRDDLVQLTYNEQLEPFVKEFGLEGHV
Take B2: the Kd in assay [2] was found to be 5 nM.

B3: LdIMPDH, glycosomal PTS1 protein inosine monophosphate dehydrogenase of Leishmania donovani, recombinant (enzyme, UniProt P21620 1-514, looked up)
chain: MATNNANYRIKTIKDGCTAEELFRGDGLTYNDFIILPGFIDFGAADVNISGQFTKRIRLHIPIVSSPMDTITENEMAKTMALMGGVGVLHNNCTVERQVEMVKSVKAYRNGFISKPKSVPPNTPISNIIRIKEEKGISGILVTENGDPHGKLLGIVCTKDIDYVKNKDTPVSAVMTRREKMTVERAPIQLEEAMDVLNRSRYGYLPIVNENDEVVNLCSRRDAVRARDYPHSTLDKSGRLICAAATSTRPEDKRRVAALADVGVDVLVLDSSQGNTIYQIAFIKWVKSTYPHLEVVAGNVVTQDQAKNLIDAGADGIRIGMGSGSICITQEVLACGRPQGTAVYKVAQYCASRGVPCTADGGLRQVGDICKALAIGANCAMLGGMLSGTTETPGEYFFKGGVRLKVYRGMGSLEAMSQGKESGKRYLSENEAVQVAQGVSGNVVDKGSAAKLIAYVSKGLQQSAQDIGEISFDAIREKMYAGQVLFSRRSPTAQGEGGVHSLHSYEKKLFAAKM
notes: Inosine monophosphate dehydrogenase (LdIMPDH) of Leishmania donovani, with the C-terminal tripeptide PTS1 signal Ala-Lys-Met; construct not described here
On to B3, for which the Kd in assay [1] is ~5 nM.

These data come from publication PMC3475689, “Leishmania donovani Argininosuccinate Synthase Is an Active Enzyme Associated with Parasite Pathogenesis” (PLoS Neglected Tropical Diseases, 2012).
